In test [1] the test system is rat hippocampal slices. Description: Long-term potentiation (LTP) in rat hippocampal slices, theta burst stimulation. The settings on record: after TBS, n=4. How it is done:
Since agintonin induces NMDA receptor activation as confirmed above, an examination was made of the effect of gintonin on LTP induction in rat hippocampal slices (Moon et al., Neursci. Lett. 466, 114-119, 2009; Lee et al., J Neurosci. Res. 89, 96-107, 2011). In this regard, LTP induction was studied after treatment with three different concentrations of gintonin (0.1, 1, and 10 μg/ml).
Male rats 3-5 weeks old (Sprague-Dawley strain) (Charls River, U.S.A.) were quickly sacrificed by cervical dislocation without using an anesthetic (Steidl et al., Brain Res. 1096, 70-84, 2006). With the aid of a rongeur (Fine Science Tools Inc., USA), the cranium was removed, and the brain was excised, immediately cooled in ice, and immersed in artificial cerebrospinal fluid (saCSF) containing oxygen-saturated (95% O2/5% CO2) sucrose (composition mM: Sucrose 248, NaHCO3 26, glucose 10, KCl 3, CaCl2 2, MgCl2 1, HEPES 10, pH7.4).
The hippocampus was sectioned into 400 μm slices using vibratome (MA752 motorised advance vibroslice; Campden inc.) and the hippocampal slices were stabilized in artificial cerebrospinal fluid (aCSF) (composition mM: […], NaHCO326, Glucose 10, KCl 3, CaCl2 2, MgCl2 1, HEPES 10, pH 7.4) for 1 hr (Lelong and Rebel, J Pharmacol Toxicol Methods. 39, 203-210, 1998).
OHSCs were incubated according to the Stoppini method (Stoppini et al., J Neurosci Methods 37, 173-182, 1991), and all procedures were conducted on a sterilized bench.
Immediately after excision from the cranium, the rat brain was immersed in an ice-cold HBSS-medium (LB 003-01, Sigma, St. Louis, Mo., USA), and the hippocampus was separated and sectioned at a thickness of 400 μm using a tissue chopper (Mickle Laboratory Engineering Co., Surrey, UK). The hippocampal slices were placed on a membrane insert (polytetrafluorethlene membranes, 0.4 μm Millicell-CM, Millipore Co., Bedford, Mass., USA), and immersed in a culture medium. […]

Test [2] deals with mice. Nature of the test: Passive avoidance test, scopolamine-caused long-term memory impairment. The test is classed as in vivo, mouse. How it is done:
ICR male mice (25-28 g), purchased from Oriental Bio (Seoul, Korea), were bred according to the guideline of the Institutional Animal Care and Use Committee of Konkuk University, and subjected to passive avoidance test to examine memory maintenance impairment and the protection of gintonin against memory impairment according to the method of Yang et al. (Yang et al., Biol Pharm Bull 32, 1710-1715, 2009).
A passive avoidance test was performed in a training chamber which was divided into two compartments (20×20×20 cm in size, each) separated by an automatically moving guillotine door (5×5 cm): one compartment was lighted while the other remained dark where metal rods installed in a lattice pattern on the bottom so as to deliver an electrical foot shock (Gemini Avoidance System, San Diego, USA).
For an acquisition trial, a mouse was first placed in the lighted compartment, facing away from the dark compartment and allowed to explore for 10 sec. After 10 sec, the guillotine door was opened and the mouse was allowed to explore freely. When the mouse entered the dark compartment with all four paws according to its habit, the guillotine door was closed, and a footshock (0.5 mA, 3 sec duration) was delivered. The latency time to enter the dark compartment was recorded (from the time the door was lifted). 120 min before experimentation, gintonin (25, 50, 100 mg/kg, p.o) was administered while tacrine (10 mg/kg, p.o) was used as a positive control. Memory impairment was induced by injecting scopolamine (0.9 mg/kg, i.p.) 30 min after gintonin or tacrine administration (Araujo et al., Prog Neuropsycopharmcol Biol Psychiatry 29, 411-422, 2005). For a negative control, a physiological saline was used.
24 Hours after the learning session, an experiment was performed without injecting gintonin. The mouse was positioned again in the lighted compartment. After 10 sec of acclimation, the latency time to enter the dark compartment was recorded (from the time the door was lifted).

The subject of test [3] is endogenous CaCC. To be noted: Xenopus oocytes; Pyo et al. 2011; cited from earlier work.

The values that follow come from patent US20140234868A1, “USE FOR GLYCOLIPOPROTEIN GINTONIN, ISOLATED AND IDENTIFIED FROM GINSENG, AS A NATURAL MEDICAL-PLANT DERIVED LIGAND” (KONKUK UNIVERSITY INDUSTRIAL COOPERATION CORP., priority 2011, published 2014).

B1: gintonin: ginseng-derived glycolipoprotein; structural protein of ginseng major latex-like protein (MLP151) and ribonuclease-like storage proteins; crude gintonin used in tests (protein)
chain 1: MGLTGKLICQTGIKSDGDVFHELFGTRPHHVPNITPANIQGCDLHEGEFGKVGSVVIWNYSIDGNAMIAKEEIVAIDEEDKSVTFKVVEGHLFEEFKSIVFSVHVDTKGEDNLVTWSIDYEKLNESVKDPTSYLDFLLSVTRDIEAHHLPK
chain 2: RSDYPWAMFALRLQWPAGFCEVNNACDTKSLLNTFTIHGLYPYNAKGTPALYCDGTAFDVNSVSDFLAEMHLAWPSHETNTEDIQFWEHEWKKHGRCSEALLKQTDYFRTALAFRKAFDIVGLLNQEGIYPNNDLYRPKMIKEAIKKHLNAVPEIDFTKNENSEYVLTDINVCVNQQATRFVDCPTDDATDDYRLKFVRLPSKMKFADPRTNSII
B1: the “total field excitatory postsynaptic potentials (total fEPSPs)” value in test [1] (gintonin 0.1 μg/ml) is reported as 180.90±7.53%; in test [1] (gintonin 1 μg/ml), 205.32±6.40%; in test [1] (gintonin 10 μg/ml), 214.14±11.55%. Further, the latency time in test [2] (gintonin 25 mg/kg p.o. + scopolamine 0.9 mg/kg i.p.) is 78.24 ± 7.83 s; in test [2] (gintonin 50 mg/kg p.o. + scopolamine 0.9 mg/kg i.p.) it was 169.22 ± 12.97 s; in test [2] (gintonin 100 mg/kg p.o. + scopolamine 0.9 mg/kg i.p.) it was 183.43 ± 10.89 s. In addition, the CaCC activation result in test [3] is on record as “activate endogenous Ca^2+-activated channel (CaCC)”.
